Reference: paper PMC3236778
Each block holds one molecule with its values, some of them ahead of it.

Assays:
[1] = biological target: GkDnaC helicase, wild-type (replicative helicase of Geobacillus kaustophilus HTA426) (Geobacillus kaustophilus HTA426); experiment: SEC; size-exclusion column during purification; data not shown
[2] = biological target: GkDnaC helicase, wild-type (replicative helicase of Geobacillus kaustophilus HTA426) (Geobacillus kaustophilus HTA426)
[3] = biological target: GkDnaC R420A mutant (arginine finger) (Geobacillus kaustophilus HTA426); experiment: SEC; size-exclusion column during purification; data not shown
[4] = biological target: GkDnaC K309A mutant (Geobacillus kaustophilus HTA426); experiment: as above

Molecule: GkDnaI helicase loader (natural protein)
ATPase activity of the GkDnaC-GkDnaI complex (NADH-coupled assay) [2]: 18.1 µM/min
unwinding efficiency (fold, against GkDnaC alone), gel shift assay of fork DNA unwinding [2]: 0.15 fold

B1: GkDnaG primase, full-length wild-type (enzyme)
chain: MGHRIPEETIEAIRRGVDIVDVIGEYVQLKKQGRNYFGLCPFHGEKTPSFSVSPEKQIFHCFGCGAGGNAFTFLMDIEGIPFVEAAKRLAAKAGIDLSAYELDSRGSDGSRADEAKAMVEAHTLLKRFYHHLLVHTKEGQAALDYLQVRGWTKETIDRFEIGYAPDVPDAAVRLLESRSFPLVLMEKAGLLVKKEDGRYVDRFRNRIMFPIHDHRGETVGFSGRLLGDGQPKYMNSPETPIFRKGTLLYFFHEARVSIRKRQEALLVEGFADVISAVQAGVDYVVATMGTSLTEEQARILRRHAETVTICYDGDSAGTEAAWRAAEQLSAFGCRVKVALLPDGLDPDEYIRTCGADRFAEEIAAARPLMAFKMDRLRRGKNLQEEGDRLRYIEEALREISKLSSPVEKDYYMRQLADEFSLSLSALYEQLSRSKPEQPKPQVNDGGKPVRPALTKKLLPAFQNAERLLLAHMMRSRDVAFIVQEQVGGRFNIEEHRALAAYIYAFYEEGHEADPSALMSRLPGELRTLASELSLLLVADDVSDRELADCIRHVLNHPKWLMLKEKEQEKTEAERRKDFLTAARIAKEMIEMKKMLSSS
ATPase activity of the GkDnaC-GkDnaG complex (NADH-coupled assay) [2]: 79.5 µM/min
unwinding efficiency (fold, against GkDnaC alone), gel shift assay of fork DNA unwinding [2]: 1.45 fold
unwinding velocity of the GkDnaC-GkDnaG complex (smTPM) [2]: 7.44 bp/s

Results, then the molecule that gave them:

stoichiometry N [1]: 6
Molecule: GkDnaC helicase, wild-type (replicative helicase of Geobacillus kaustophilus HTA426) (enzyme)

stoichiometry N [3]: 6
Molecule: GkDnaC R420A mutant (arginine finger) (enzyme)

stoichiometry N [4]: 6
Molecule: GkDnaC K309A mutant (enzyme)
